Laboratory results reported in the DeepSol protein solubility set.

Test: soluble on expression in E. coli; label from the status in PepcDB or PDB records
In the case of “MGSDKIHHHHHHACDDNKDEFLDEFSTILSFRNCDEIEVEVYNTGENGEYQLIVNKSGAQLGTVTRASIDVMDKALLEIYNEQNGKDYQLYPEDCYVFNGDKQIEFGPNDTYQTRSVTLITDKILESNQQEGNFVIPFILQNSADSINAERKYVFLKPAVIVPNVAFEKTGYNLNIISDAMDANEIELNLPAVFSVDNKWNFSCTLEPDESLLTEYNEKNGVDYTMLSEEAYTLSNEGKILFTAGSKSASLTVTVKRNKLSYGNYVLPLKMTQCSSPYFEINPNKQSCLFGISYVPDESKLHPVTLSRGMTAIHPNREVEGKIDYMFDGNPDTYYHSDYLEEPGLPHWIQLNLDEPHTALMFEYQVRHNNNNGAPQRISVLGSMDGITFSKIMTIMEGFPTATKGTYKSPVLVGKEFKHIRLVVESTPAGNSFALAELKLHVN”, the “soluble on expression in E. coli” value is reported as “not soluble”. In the case of “MGSDKIHHHHHHLLKSSSTVHKGADYWTKRISDQEMPALCSTVRELEKLAKDDVSSLAILGRSVMHDNALTSRILRVANSATYNKGINHVSTVSRAAVMLGFDTLRNICITARLLSSLLENKNLSPNVYQRLLKLMAQSFQAAMLARMMMTGHDEKLREEVFIASLLYRIGESAFWSTGGSFSDALDQKLRDSDSEQDPQAIVRDILGTSFSQLTQNIARSWGLGEVLLKSLSHPDERTPEIRCIALADKLAQLLIEPAEDPNEFAERLKQTADMLNIEVSEFRQKVVDCTKATQKLAIDYGAKVLLDFLPKSADVKASVDQEAKPLVVRASDAAIQLKKLRELTGYALTKTDFNQVMLTALEGILSGVGVDRCGVLLLSPNRQLLQPRIMLGDEAEAMKREFIISLDETMSIFSQCVERKTPFWVADPNAKEWQKSINPALKTKLSKTGFFLAPVSIDTRVIGVFFADRSHSGRSFEPQDYDNFTHFTQLANICFGVSVK”, the “soluble on expression in E. coli” value is reported as “not soluble”. With “MAHHHHHHMHLQIVCLTDEVREMYKHHKTHHEGDSGLDLFIIKDEILKPKSTTFVKLGIKAIALQYKSSYYHKSEANANANANANGKDAPVGMGGVNAKESCAPHQKNPEIVNTSYLLFPRSSISKTPLRLANSIGLIDAGYRGELIAALDNTSEEEYLIKKNDKLVQLVSFTGEPLSFELVDELDETSRGEGGFGSTSNK” the “soluble on expression in E. coli” value was “soluble”. For “MESTIEGEDENYVKVYITDNLDSEHELTIDKNSGDIPYHQCDAYADDANRRTSEENEYNNQARRYAKYYVFAQRGYDTVEHIENPAYVDAVRRAIADLSPAEFKRYFGALYRQLRSHHDDTERPRELPSGVRKPDAVVYEPEIYLGLEAVGEDVAERAQALATAHGFDLEESAEVQPVSELSDETLSRWKAFGDDLAAIVTREDLTTNLTITGVSGLHIGYPNRLGKHEVDEADSPFTHQADARLSLLPYAPESFDEFPAYLDHHLRCQVRDCFLKMGVVPPEEFHVVGFGKFRDSRRYDHFEMYPEVHKRDGNHTPLLG”, the “soluble on expression in E. coli” value was “not soluble”. In the case of “MAHHHHHHMNDERVLFLTSSTCITICENQIGIDVLLKTDILHNAVILCESANPDLAFEALSIISKIAYAANHQQICILISCNVIKALKKILNNMKIKPGARARACNALGNIGCETASEVELLIKNDVFPLLVDIFQTDNDFNTKIEAAYAVCACLSKANQKQVGYIISCTATTNRLGQNICMQLIADMLELVSESDPMNNGSVKLCKSILRGLENILDKGDDETRDLSLWENPYVFMFKEVQGDIKLFQMQFFPEYYVVNKTYDILAKYFSLTSTWNNRK”, the “soluble on expression in E. coli” value is reported as “not soluble”. In the case of “MRKYRLSEEQRAFSYQEDGTKKSVLLRQIIAISDFNDVIAGTAGGWIDRETVLAQEGNCWIYDQNAIAFGGTVISGNTRITGTSVLWGEVYATDNVWIDNSEISQGAYISDSVTIHDSLVYVQCRIFGHALIDQHSMIVAAQGLTPDHQLLLQIYDRARVSASRIVHQAQIYGDAVVRYAFIEHRAEVFDFASVEGNEENNVWLCDCAKVYGHAQVKAGIEEDAIPTIHYSSQVAEYAIVEGNCVLKHHVLIGGNAVVRGGPILLDEHVVIQGESRITGAVIIENHVELTDHAVVEAFDGDTVHVRGPKVINGEERITRTPLAGLLLEHHHHHH”, the “soluble on expression in E. coli” value is reported as “not soluble”. In the case of “MGHHHHHHSHAELSANQSRIDALEKAGQKLIDVNHYAKDEVAARMNEVISLWKKLLEATELKGIKLREANQQQQFNRNVEDIELWLYEVEGHLASDDYGKDLTNVQNLQKKHALLEADVAAHQDRIDGITIQARQFQDAGHFDAENIKKKQEALVARYEALKEPMVARKQKLADSLRLQQLFRDVEDEETWIREKEPIAASTNRGKDLIGVQNLLKKHQALQAEIAGHEPRIKAVTQKGNAMVEEGHFAAEDVK”, the “soluble on expression in E. coli” value is reported as “soluble”. With “MAHHHHHHMQHSLRGDFVTQRSTCFRTEKERKQKALNLIKNENNAEGYFNNLNFNLEYTEELNEQITSLDPKTSIQELTNIFNDLNENRKKNFHYLIEALENVSLILAHQNDIPEKHRKSTWCKIKHDLQCDFIKEHPNIHSNFDVFIRKIQSIDEFISYIKECIHSWNNFTNEKKLQYFPKVYETYQSDKICKENNYKKINNKTECNPKESIKNESIPKECIPNENMKKECVPNGCMKKQCVPKECMKKECVTNGHMKKQCVPNECMKKQCVPKECMKKECVPNGCMKKECTPNKNDKNVNRTDINNQNKTNEKLCDKKEKKRLPSK” the “soluble on expression in E. coli” value was “soluble”. With “MAVQRYFVSGQAQQGGIVAISGDDAHHIARVMRMKPGDGIICVFPDGRTAVCEIEQIANEHVQARIVQWKEERSELPVRIYIAQGLPKGEKWELVIQKGTELGAAGFLPFEAARSVVKWDAKKAEKKVERWKKIAKEAAEQAERTVVPDVRAPLSFVELLAFGQTVDVRLFAYEKEARNARHAALPALLSRLRPGGALLAVFGPEGGFSPEEAEQLRQHGFSPCSLGPRILRTETAPLYLLSAASYEWELRAGGEAARGR” the “soluble on expression in E. coli” value was “not soluble”. For “FEKHGTYYEIFVRSFYDSDGDGIGDLKGIIEKLDYLNDGDPETIADLGVNGIWLMPIFKSPSYHGYDVTDYYKINPDYGTLEDFHKLVEAAHQRGIKVIIDLPINHTSERHPWFLKASRDKNSEYRDYYVWAGPDTDTKETKLDGGRVWHYSPTGMYYGYFWSGMPDLNYNNPEVQEKVIGIAKYWLKQGVDGFRLDGAMHIFPPAQYDKNFTWWEKFRQEIEEVKPVYLVGEVWDISETVAPYFKYGFDSTFNFKLAEAVIATAKAGFPFGFNKKAKHIYGVYDREVGFGNYIDAPFLTNHDQNRILDQLGQDRNKARVAASIYLTLPGNPFIYYGEEIGMRGQGPHEVIREPFQWYNGSGEGETYWEPAMYNDGFTSVEQEEKNLDSLLNHYRRLIHFRNENPVFYTGKIEIINGGLNVVAFRRYNDKRDLYVYHNLVNRPVKIKVASGNWTLLFNSGDKEITPVEDNNKLMYTIPAYTTIVLEKE”, the “soluble on expression in E. coli” value was “soluble”. For “MSLGSSDLPAHALVGYLHASFANGSGYTRMADVPDSWDVIDLAFGEPTSVTSGDIRFERCPVAECPNVESDAEFKAAIKAKQAAGKKVLISIGGQNGQVQLTSTAARDKFVSSVSAIIDEYGLDGLDIDFEGHSLSLNADDTDFKNPKTPVIVNLVSAVKTLKAKYGDGFVLTMAPETFFVQLGYQYYGTGKWGGQDPRAGAYLPVIHALRDDLTLLHVQDYNSGSIMGLDNQYHSMGGADFHIAMTDMLLTGFPVAGDANNVFPPLRPDQVAIGMPASTQAGNGHVSPAEVTKALNCLTKKTDCGSYATHGTWPDLRGLMTWSINWDRYSNWEFQKNFDAYFGEGHHHHHH”, the “soluble on expression in E. coli” value was “soluble”. For “MSLKQISIRDVAALAGVSVGSASRVINGAANVTPDVRERVDRAIAALRYRPNHAAQSLRSRTSKTIGCMFSDVANPLYARAFRALEEHFRREGYMLLLANGLNDAEREIDIIQTFQLRGMDGVILAPGNERHPGVLDAVRRLSMPAVIYDRDLAVDADAVLFDHVAGVKAAIHHLVELGHTRIALALWQVKSRPVRRRIEGYKAAFKAAGLPVPDLILQEPTPTSSAFDDVTRLLQLPDPPTAFLAQGTHTLTSTLRAIAKQGLRVPEDVSVIGIGDTDFAQTYDPPLTVLRTPTDEVAAHAVEMLLSRLAAKGDASLSPRKALIQFDLILRESCAPVAREGHHHHHH”, the “soluble on expression in E. coli” value was “not soluble”. With “KAPNLYMTDTTGTYRYLYDVQAKYTILFFWDSQCGHCQQETPKLYDWWLKNRAKGIQVYAANIERKDEEWLKFIRSKKIGGWLNVRDSKNHTDFKITYDIYATPVLYVLDKNKVIIAKRIGYENLDDFLVQYEKSLKTK” the “soluble on expression in E. coli” value was “not soluble”.
